From patent publication US20140148396A1 come the findings set out here.

The experiment has as its target EMMPRIN in mouse aortic endothelial cells (MAEC) (mouse) (UniProt P18572). The experiment in a line: cell-based or functional assay.

Where only a bound is given, the exact number is not on record here.

“anti-EMMPRIN antibody (rat-anti-mouse-EMMPRIN, OX114 clone)” had a reduction of MMP-9 in mice compared to the IgG control above 50%.
